From paper PMC6606808 come the findings set out here.

Broadly, the stoichiometry N is a count of units in the complex or per binding partner.

The experiment concerns the target Acinetobacter baumannii AdeB multidrug efflux pump (Acinetobacter baumannii AB0057). Kind of experiment: cryo-EM structure; single-particle cryo-EM of purified AdeB reconstituted in lipidic nanodiscs (MSP 1E3D1, E. coli total extract lipid); 20 mM Tris-HCl pH 7.5, 100 mM NaCl; no substrate; C3 symmetry; 2.98 Å.

Consider “Acinetobacter baumannii AdeB multidrug efflux pump (natural protein)”, for which the stoichiometry N is 3.
